Results: paper PMC2887854

Target: protective antigen (PA83, 83 kDa), monomeric (Bacillus anthracis)
Assay: SPR

Chain of protective antigen (PA83, 83 kDa), monomeric (Bacillus anthracis) (P13423 30-764 limits assumed): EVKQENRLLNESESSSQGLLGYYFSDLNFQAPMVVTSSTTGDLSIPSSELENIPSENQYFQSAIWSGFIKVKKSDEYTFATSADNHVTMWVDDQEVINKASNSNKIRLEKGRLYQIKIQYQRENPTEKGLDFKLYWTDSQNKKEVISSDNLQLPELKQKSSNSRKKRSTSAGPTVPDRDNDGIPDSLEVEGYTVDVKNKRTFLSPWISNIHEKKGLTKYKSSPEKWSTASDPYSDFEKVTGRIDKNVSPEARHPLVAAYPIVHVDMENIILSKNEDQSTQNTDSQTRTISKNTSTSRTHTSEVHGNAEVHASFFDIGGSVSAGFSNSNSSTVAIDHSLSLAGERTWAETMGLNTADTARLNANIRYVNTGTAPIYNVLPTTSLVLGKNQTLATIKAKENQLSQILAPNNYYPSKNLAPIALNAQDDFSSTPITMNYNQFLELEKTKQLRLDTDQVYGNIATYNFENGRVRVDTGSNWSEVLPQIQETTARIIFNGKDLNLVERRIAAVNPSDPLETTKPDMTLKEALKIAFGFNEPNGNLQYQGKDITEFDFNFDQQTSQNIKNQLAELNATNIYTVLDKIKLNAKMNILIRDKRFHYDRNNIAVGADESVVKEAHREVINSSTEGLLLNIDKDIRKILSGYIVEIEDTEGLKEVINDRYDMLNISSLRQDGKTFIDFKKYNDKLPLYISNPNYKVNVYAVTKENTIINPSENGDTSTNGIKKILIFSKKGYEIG

CMG2-R40 vWA domain (residues 40-217) (from UniProt P58335 40-217) (domain or fragment)
Kd: 2.43 nM
koff: 0.000105 s⁻¹
kon: 45300 M⁻¹ s⁻¹
